From patent US11814663B2, “Microorganisms with improved 1,3-propanediol and butyric acid production” (METABOLIC EXPLORER, priority 2018, dated 2023)

B1: Clostridium acetobutylicum glycerol kinase GlpK variant GlpK*(H22Y/A347T/V466M), SEQ ID NO: 13 (Clostridium acetobutylicum ATCC 824; A347T/H22Y/V466M) (protein)
chain: MKKYIIALDQGTTSSRAIIFDYEQNILEISQKEFTQIYPSKGWVEHNPLEIWSSQYGVLQEVMAKANITQENIAAIGITNQRETTIVWDKNTGEPVYNAIVWQCRRTADIVEGLKRDKEFSDYVKENTGLILDAYFSATKIKWILDNVEGAREKAEKGELLFGTVDTWLVWKLTNGKVHVTDYTNASRTMLYNIKELKWDERILRKLNIPRSMLPEVKNSSEVYGYTNLGGKGGIRVPIAGMAGDQQCALFGQTCFEEGSVKNTYGTGCFLLMNTGENIIQSKNGLVTTIAIGLEGKVQYALEGSVFVGGAVIQWIRDELKLVSDAADTEYFAKKVNDNGGVYVVPTFTGLGAPYWDMYARGAIFGLTRGANKNHIIRAALEAIAYQSRDLIDAMKEDSGCEITRIKVDGGASRNNLLMQFQADITGTEVVRPIITETTALGAAYLAGLAVGFWKSKEEIAEKWSMSEVYTPNLDEDEKIRLYNGWKRAVERVQGWEE
notes: GlpK*(H22Y/); made in house; host or cells: E. coli BL21(DE3) star

Legend:
Format in all cases: biochemical, Clostridium acetobutylicum ATCC824
[1] = target: T1, Clostridium acetobutylicum glycerol kinase GlpK wt (glpK, CA_C1321, Uniprot Q97JG4), SEQ ID NO: 1 (Clostridium acetobutylicum, UniProt Q97JG4); experiment: Glycerol kinase activity towards glycerol (ADP appearance coupled to NADH oxidation), wild type; conditions: pH 9, 30° C., 2 mM ATP, 0.01-50 mM glycerol
T1 construct: GlpK wt; Q97JG4; made in house; host or cells: E. coli BL21(DE3) star
T1 sequence (Q97JG4 1-498): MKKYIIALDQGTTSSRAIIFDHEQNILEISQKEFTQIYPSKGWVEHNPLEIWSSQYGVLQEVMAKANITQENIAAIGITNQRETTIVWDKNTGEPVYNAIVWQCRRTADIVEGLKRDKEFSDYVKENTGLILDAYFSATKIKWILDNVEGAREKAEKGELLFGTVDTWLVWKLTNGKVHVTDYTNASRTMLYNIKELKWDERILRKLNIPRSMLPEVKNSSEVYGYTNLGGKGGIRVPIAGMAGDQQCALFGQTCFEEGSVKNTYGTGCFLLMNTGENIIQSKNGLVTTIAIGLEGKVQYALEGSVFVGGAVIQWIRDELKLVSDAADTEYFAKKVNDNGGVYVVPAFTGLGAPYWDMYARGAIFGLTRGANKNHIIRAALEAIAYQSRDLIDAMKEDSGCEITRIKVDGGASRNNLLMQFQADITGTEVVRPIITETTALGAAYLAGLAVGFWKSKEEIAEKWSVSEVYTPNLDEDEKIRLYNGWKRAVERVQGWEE
Source text: (§1) Three different point mutations were identified in glpK gene in the clone PD0557Vc05 leading to the mutant protein GlpK* with H22Y, A347T and V466M (table 2 above). In order to better characterize the effect of the mutations, we tested them individually or in combination. Therefore, the alleles coding for the mutated glycerol kinase were cloned into the expression plasmid pPAL7 (Biorad®) and the plasmids obtained were transformed into E. coli strain BL21(DE3) star to purify each mutated protein and perform biochemical experiments. […]
(§2) The proteins were purified from the crude cell-extract by affinity on a Profinity column (BIORAD, Bio-Scale Mini Profinity exact cartridge 5 ml) according to the protocol recommended by the manufacturer. […] Protein concentration was measured using the Bradford protein assay.
(§3) Determination of kinetic parameters of GlpK wild type and mutants Glycerol kinase activity (GLPK) that catalyses the following reaction: Glycerol+ATP=>Glycerol-3-Phosphate+ADP, was determined by measuring the ADP appearance by enzymatic coupling to NADH oxidation. […] The oxidation of NADH was monitored at 30° C. by absorbance at 340 nm on a spectrophotometer (λ340=6290 M^−1 cm^−1).
(§4) One unit of enzyme activity was defined as the amount of enzyme catalyzing the decrease of 1 μmol of NADH per min. Kinetic parameters were determined with Sigmaplot by fitting to the Michaelis-Menten equation.

[2] = target: T2, Clostridium acetobutylicum glycerol kinase GlpK variant GlpK*(H22Y/A347T/V466M), SEQ ID NO: 13 (Clostridium acetobutylicum, UniProt Q97JG4, A347T/H22Y/V466M); experiment: Glycerol kinase activity towards glycerol (ADP appearance coupled to NADH oxidation), H22Y/A347T/V466M; conditions: pH 9, 30° C., 2 mM ATP, 0.01-50 mM glycerol
T2 construct: made in house; host or cells: E. coli BL21(DE3) star
T2 sequence (Q97JG4 1-498 H22Y/A347T/V466M): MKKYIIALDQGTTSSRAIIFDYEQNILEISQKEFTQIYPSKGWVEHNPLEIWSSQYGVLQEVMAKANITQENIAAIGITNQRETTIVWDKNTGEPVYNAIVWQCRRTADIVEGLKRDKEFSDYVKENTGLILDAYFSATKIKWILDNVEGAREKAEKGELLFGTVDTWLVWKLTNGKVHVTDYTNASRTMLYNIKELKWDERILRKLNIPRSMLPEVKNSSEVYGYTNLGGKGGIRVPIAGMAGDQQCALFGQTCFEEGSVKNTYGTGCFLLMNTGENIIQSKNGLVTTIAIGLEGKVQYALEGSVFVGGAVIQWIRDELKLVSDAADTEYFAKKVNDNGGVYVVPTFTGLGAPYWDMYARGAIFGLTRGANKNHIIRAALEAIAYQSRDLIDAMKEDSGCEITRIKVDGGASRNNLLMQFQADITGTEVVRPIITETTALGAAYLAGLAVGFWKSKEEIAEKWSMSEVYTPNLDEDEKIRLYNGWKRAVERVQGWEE
Source text: as §1, §2, §3, §4

[3] = substrate: OCC(O)CO; experiment: as above; conditions: other: GlpK* (H22Y/A347T/V466M), pH 9, 30° C., 2 mM ATP, 0.01-50 mM glycerol
Source text: Three different point mutations were identified in glpK gene in the clone PD0557Vc05 leading to the mutant protein GlpK* with H22Y, A347T and V466M (table 2 above). In order to better characterize the effect of the mutations, we tested them individually or in combination. Therefore, the alleles coding for the mutated glycerol kinase were cloned into the expression plasmid pPAL7 (Biorad®) and the plasmids obtained were transformed into E. coli strain BL21(DE3) star to purify each mutated protein and perform biochemical experiments.
Cultures of the seven strains 1 to 7 for the overproduction of the proteins were realized in a 2 L Erlenmeyer flask, using LB broth (Bertani, 1951) that was supplemented with 5 g/L glucose and 100 mg/L of ampicillin. An overnight culture was used to inoculate a 500 mL culture to an OD600 nm of about 0.15. The culture was first kept on a shaker at 37° C. and 200 rpm until OD600 nm was about 0.5 and then the culture was moved on a second shaker at 25° C. and 200 rpm until OD600 nm was 0.6-0.8 (about one hour), before induction with 500 μM IPTG. The culture was kept at 25° C. and 200 rpm until OD600 nm was around 4, and then it was stopped. Cells were centrifuged at 7000 rpm, 5 minutes at 4° C., and then stored at −20° C. This protocol was the same for strains 1 to 7.
For each strain, about 250 mg of E. coli biomass was suspended in 40 ml of 100 mM potassium phosphate pH 7.6, and a protease inhibitor cocktail. The cells suspension (15 ml per conical tube) was sonicated on ice (Bandelin sonoplus, 70 w) in a 50 ml conical tube during 8 cycles of 30 sec with 30 sec intervals. After sonication, cells were incubated for 30 min at room temperature with 5 mM MgCl2 and 1 UI/ml of DNaseI. Cells debris were removed by centrifugation at 12000 g for 30 min at 4° C.
as §2, with “manufacturer. The crude extract was loaded on a 5 ml Profinity exact cartridge equilibrated with 100 mM potassium phosphate pH 7.6.” for “manufacturer.”
as §3, §4

Molecule | Kcat/km [1] [M⁻¹ s⁻¹] | Kcat/km [2] [M⁻¹ s⁻¹] | Km [3] [µM] | Vmax [3] [nmol/min/mg] | kcat [3] [s⁻¹] | kcat/Km [3] [M⁻¹ s⁻¹]
OCC(O)CO [glycerol] | 1.52e+06 | 33900 | – | – | – | –
B1 | – | – | 39 ± 2 | 1404 ± 13 | 1.32 ± 0.012 | 33900 ± 2300
